Test results: publication PMC5740175

Tests used:
[1] = test system: IRP1 (iron regulatory protein 1); test: EMSA; conditions: 25 mM Tris/HCl pH 7.4, 40 mM KCl, 1% Triton X-100, protease inhibitor (EDTA-free), 200 ng IRP1, 100 ng labeled probe, 15 min room temperature, then 50 ng …
[2] = test system: IRP1 (iron regulatory protein 1); test: competition EMSA; conditions: 25 mM Tris/HCl pH 7.4, 40 mM KCl, 1% Triton X-100, protease inhibitor (EDTA-free); 200 ng IRP1, 100 ng labeled probe; 15 min room temperature, then 50 ng …

## FTL 5' IRE +39ΔC
[1]; direct, minimal binding, reduction of almost 95%, mean of 4, heparin
  binding signal (% of WT bound): 5

## FTL 5' IRE Ghent +49A>G
[2]
  Kd: 2.7 nM
[1]; direct, 75% decrease, mean of 4, heparin
  binding signal (% of WT bound): 25

## FTL 5' IRE WT
[2]
  Kd: 0.5 nM
[1]
  binding signal (% of WT bound): 100
